Substitutions are numbered along the chain they refer to. In names and notes the source's numbering stands. One block for each binder: values may come before it.
How the values were obtained:
[1] = molecular target: T1, rHuman P-Cadherin/Fc Chimera, CF (R&D Systems Cat#861-PC) (human, UniProt P22223 108-654); assay: ECL multispot (MSD) assay, antigen spotted on plate, Fab at 0.01 µM
T1 construct: Bought recombinant protein; Fc part of the bought chimera not given

[2] = molecular target: T2, rHuman HGF R/c-MET/Fc Chimera, CF (R&D Systems Cat#358-MT/CF) (human, UniProt P08581 25-932); assay: as above
T2 construct: Bought recombinant protein; also called HGF R/Fc; hepatocyte growth factor receptor; Fc part of the bought chimera not given

[3] = molecular target: T3, rHuman ErbB2/Fc Chimera, CF (R&D Systems Cat#1129-ER) (human, UniProt P04626 23-652); assay: as above
T3 construct: Bought recombinant protein; also called human epidermal growth factor 2 receptor; Fc part of the bought chimera not given

[4] = molecular target: T4, rHuman EGF R/Fc Chimera, CF (R&D Systems Cat#344-ER) (human, UniProt P00533 25-645); assay: as above
T4 construct: Bought recombinant protein; also called epidermal growth factor receptor; Fc part of the bought chimera not given

[5] = molecular target: T5, rHuman IGF-1 sR, CF (R&D Systems Cat#391-GR) (human, UniProt P08069 31-932); assay: as above
T5 construct: Bought recombinant soluble receptor; also called insulin-like growth factor-1 soluble receptor

[6] = molecular target: T6, rHuman CD44/Fc Chimera, CF (R&D Systems Cat#3660-CD) (human, UniProt P16070 21-220); assay: as above
T6 construct: Bought recombinant protein; Fc part of the bought chimera not given

[7] = molecular target: T7, rHuman Notch-1/Fc Chimera, CF (R&D Systems Cat#3647-TK) (human, UniProt P46531 19-526); assay: as above
T7 construct: Bought recombinant protein; Fc part of the bought chimera not given

[8] = molecular target: T8, Recombinant Human DLL4 (R&D Systems Cat#1506-D4/CF) (human, UniProt Q9NR61 27-524); assay: as above
T8 construct: Bought recombinant protein; also called delta-like protein 4; rHuman DLL4

[9] = molecular target: T9, rHuman Erythropoietin R/Fc Chimera, CF (R&D Systems Cat#963-ER) (human, UniProt P19235 25-250); assay: as above
T9 construct: Bought recombinant protein; also called EPO R; EPO R/Fc; Fc part of the bought chimera not given
T9 sequence (looked up): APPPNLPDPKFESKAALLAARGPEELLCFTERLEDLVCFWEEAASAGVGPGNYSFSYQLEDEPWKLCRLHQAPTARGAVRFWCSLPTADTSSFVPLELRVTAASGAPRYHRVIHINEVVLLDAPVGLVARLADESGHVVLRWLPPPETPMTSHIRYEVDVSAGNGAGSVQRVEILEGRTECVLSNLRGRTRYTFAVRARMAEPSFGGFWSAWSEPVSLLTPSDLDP

[10] = molecular target: T10, Recombinant Human DLL4 (delta-like protein 4) (human, UniProt Q9NR61 27-524); assay: ECL Multispot (MSD) binding assay, DLL4 spotted on plate, 10 nM Fab; ECL signal over blank spot
T10 construct: Bought recombinant protein (R&D Systems Cat#1506-D4/CF), spotted on the MSD plate; also called rHuman DLL4; Delta-like 4

[11] = molecular target: T11, Recombinant Human DLL4 (delta-like protein 4) (human, UniProt Q9NR61 27-524); assay: ECL Multispot (MSD) binding assay, DLL4 spotted on plate, 10 nM Fab
T11 construct: Bought recombinant protein (R&D Systems Cat#1506-D4/CF); also called rHuman DLL4; Delta-like 4

[12] = molecular target: T12, Recombinant Human DLL4 (R&D Systems Cat#1506-D4/CF) (human, UniProt Q9NR61 27-524); assay: ECL (MSD) multispot binding assay, antigen spotted on plate, 20 nM Fab;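 further: purified Fab incubated 1 h at 20 °C on antigen-spotted plate, bound Fab revealed with TAG detection antibody, ECL read, antigen signal divided by same-well blank, ratio ≥4 counted as hit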
T12 construct: Bought recombinant protein; also called delta-like protein 4; rHuman DLL4

[13] = molecular target: T13, rHuman Notch-1/Fc Chimera, CF (R&D Systems Cat#3647-TK) (human, UniProt P46531 19-526); assay: as above
T13 construct: Bought recombinant protein; Fc part of the bought chimera not given

[14] = molecular target: T14, rHuman CD44/Fc Chimera, CF (R&D Systems Cat#3660-CD) (human, UniProt P16070 21-220); assay: as above
T14 construct: Bought recombinant protein; Fc part of the bought chimera not given

[15] = molecular target: T15, rHuman EGF R/Fc Chimera, CF (R&D Systems Cat#344-ER) (human, UniProt P00533 25-645); assay: as above
T15 construct: Bought recombinant protein; also called epidermal growth factor receptor; Fc part of the bought chimera not given

[16] = molecular target: T16, rHuman Erythropoietin R/Fc Chimera, CF (R&D Systems Cat#963-ER) (human, UniProt P19235 25-250); assay: as above
T16 construct: Bought recombinant protein; also called EPO R; EPO R/Fc; Fc part of the bought chimera not given
T16 sequence (looked up): T9 sequence (looked up)

[17] = molecular target: T17, rHuman ErbB2/Fc Chimera, CF (R&D Systems Cat#1129-ER) (human, UniProt P04626 23-652); assay: as above
T17 construct: Bought recombinant protein; also called human epidermal growth factor 2 receptor; Fc part of the bought chimera not given

[18] = molecular target: T18, rHuman P-Cadherin/Fc Chimera, CF (R&D Systems Cat#861-PC) (human, UniProt P22223 108-654); assay: as above
T18 construct: Bought recombinant protein; Fc part of the bought chimera not given

[19] = molecular target: T19, rHuman IGF-1 sR, (IGF-1 sR), CF (R&D Systems Cat#391-GR) (human, UniProt P08069 31-932); assay: as above
T19 construct: Bought recombinant soluble receptor; also called insulin-like growth factor-1 soluble receptor

[20] = molecular target: T20, rHuman HGF R/c-MET/Fc Chimera, CF (R&D Systems Cat#358-MT/CF) (human, UniProt P08581 25-932); assay: as above
T20 construct: Bought recombinant protein; also called HGF R/Fc; hepatocyte growth factor receptor; Fc part of the bought chimera not given

[21] = molecular target: T21, rHuman IGF-1 sR, CF (R&D Systems Cat#391-GR) (human, UniProt P08069 31-932); assay: ECL multispot (MSD) assay, antigen spotted on plate, 20 nM Fab;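 further: purified Fab bound to plate-spotted antigen for 1 h at 20 °C, labelled detection antibody added, ratio of antigen ECL signal to same-well blank, ratio ≥4 counted as binder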
T21 construct: Bought soluble receptor; also called insulin-like growth factor-1 soluble receptor

[22] = molecular target: T22, rHuman Erythropoietin R/Fc Chimera, CF (R&D Systems Cat#963-ER) (human, UniProt P19235 25-250); assay: as above
T22 construct: Bought recombinant protein; also called EPO R; EPO R/Fc; Fc part of the bought chimera not given
T22 sequence (looked up): T9 sequence (looked up)

[23] = molecular target: T23, rHuman CD44/Fc Chimera, CF (R&D Systems Cat#3660-CD) (human, UniProt P16070 21-220); assay: as above
T23 construct: Bought recombinant protein; Fc part of the bought chimera not given

[24] = molecular target: T24, rHuman ErbB2/Fc Chimera, CF (R&D Systems Cat#1129-ER) (human, UniProt P04626 23-652); assay: as above
T24 construct: Bought recombinant protein; also called human epidermal growth factor 2 receptor; Fc part of the bought chimera not given

[25] = molecular target: T25, rHuman EGF R/Fc Chimera, CF (R&D Systems Cat#344-ER) (human, UniProt P00533 25-645); assay: as above
T25 construct: Bought recombinant protein; also called epidermal growth factor receptor; Fc part of the bought chimera not given

[26] = molecular target: T26, Recombinant Human DLL4 (R&D Systems Cat#1506-D4/CF) (human, UniProt Q9NR61 27-524); assay: as above
T26 construct: Bought recombinant protein; also called delta-like protein 4; rHuman DLL4

[27] = molecular target: T27, rHuman P-Cadherin/Fc Chimera, CF (R&D Systems Cat#861-PC) (human, UniProt P22223 108-654); assay: as above
T27 construct: Bought recombinant protein; Fc part of the bought chimera not given

[28] = molecular target: T28, rHuman Notch-1/Fc Chimera, CF (R&D Systems Cat#3647-TK) (human, UniProt P46531 19-526); assay: as above
T28 construct: Bought recombinant protein; Fc part of the bought chimera not given

B2: Fab VH1-46_IGHD6-6*01_IGHJ1*01 S102A/S103P/S104F H111S & L6_IGKJ1*01 (Fab, V domains shown)
VH: QVQLVQSGAEVKKPGASVKVSCKASGYTFTSYYMHWVRQAPGQGLEWMGIINPSGGSTSYAQKFQGRVTMTRDTSTSTVYMELSSLRSEDTAVYYCAREEYAPFSAEYFQSWGQGTLVTVSS
VL: not shown
notes: Fab format is as for m1 (CH1 with His6/Flag from Plasmid A, kappa CL from Plasmid C); also called APF H111S
- Signal/Noise [10]: 24

B3: Fab VH1-46_IGHD6-6*01_IGHJ1*01 S102A/S103P/S104F/H111F & L6_IGKJ1*01 (Fab, V domains shown)
VH: B2 VH with S111F
VL: not shown
notes: Fab format is as for m1 (CH1 with His6/Flag from Plasmid A, kappa CL from Plasmid C); also called APFF; H:APFF & L:wt
- Signal/Noise [10]: 42.5

B5: Fab VH1-46_IGHD6-6*01_IGHJ1*01 S102A/S103P/S104F G55W & L6_IGKJ1*01 (Fab, V domains shown)
VH: B2 VH with G55W, S111H
VL: not shown
notes: Tested as Fab; also called APF G55W
- Signal/Noise [11]: 8

B6: Fab VH3-23_IGHD2-21*01>3_IGHJ6*01 H100E/S108P/Y113G/Y111P & V2-13_IGLJ2*01 (Fab, V domains shown)
VH: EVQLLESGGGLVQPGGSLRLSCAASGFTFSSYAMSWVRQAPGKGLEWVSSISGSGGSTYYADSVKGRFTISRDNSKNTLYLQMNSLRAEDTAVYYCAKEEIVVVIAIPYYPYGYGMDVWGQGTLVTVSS
VL: SSELTQDPAVSVALGQTVRITCQGDSLRSYYASWYQQKPGQAPVLVIYGKNNRPSGIPDRFSGSSSGNTASLTITGAQAEDEADYYCNSRDSSGNHLVVFGGGTKLTVL
notes: Fab made in E. coli: VH joined to CH1 (with His and Flag tags, plasmid A) and VL to lambda CL (plasmid E); also called EPG Y111P
- ECL signal/blank ratio [12]: 1.4
- ECL signal/blank ratio [13]: 1.6
- ECL signal/blank ratio [14]: 1.3
- ECL signal/blank ratio [15]: 1.5
- ECL signal/blank ratio [16]: 1.9
- ECL signal/blank ratio [17]: 1.6
- ECL signal/blank ratio [18]: 1.3
- ECL signal/blank ratio [19]: 1.2
- ECL signal/blank ratio [20]: 1.7

B7: Fab VH3-23_IGHD2-21*01>3_IGHJ6*01 H100E/S108P/Y113G T58A & V2-13_IGLJ2*01 (Fab, V domains shown)
VH: EVQLLESGGGLVQPGGSLRLSCAASGFTFSSYAMSWVRQAPGKGLEWVSSISGSGGSAYYADSVKGRFTISRDNSKNTLYLQMNSLRAEDTAVYYCAKEEIVVVIAIPYYYYGYGMDVWGQGTLVTVSS
VL: B6 VL
notes: Tested as a Fab made in E. coli; also called EPG T58A
- ECL signal/blank ratio (read-out not given) [21]: 1.2
- ECL signal/blank ratio (read-out not given) [22]: 158
- ECL signal/blank ratio (read-out not given) [23]: 1.5
- ECL signal/blank ratio (read-out not given) [24]: 15.9
- ECL signal/blank ratio (read-out not given) [25]: 9.6
- ECL signal/blank ratio (read-out not given) [26]: 2.3
- ECL signal/blank ratio (read-out not given) [27]: 36.9

B10: Fab VH3-23_IGHD2-21*01>3_IGHJ6*01 H100E/S108P/Y113G D62A & V2-13_IGLJ2*01 (Fab, V domains shown)
VH: B7 VH with A58T, D62A
VL: B6 VL
notes: Tested as a Fab made in E. coli; also called EPG D62A
- ECL signal/blank ratio (read-out not given) [21]: 1.4
- ECL signal/blank ratio (read-out not given) [22]: 244
- ECL signal/blank ratio (read-out not given) [23]: 2
- ECL signal/blank ratio (read-out not given) [24]: 21.7
- ECL signal/blank ratio (read-out not given) [25]: 11.6
- ECL signal/blank ratio (read-out not given) [26]: 2.4
- ECL signal/blank ratio (read-out not given) [27]: 45.8

Results, then the binder that gave them:

- ECL signal/noise ratio [1]: 1
- ECL signal/noise ratio [2]: 0.9
- ECL signal/noise ratio [3]: 1
- ECL signal/noise ratio [4]: 0.9
- ECL signal/noise ratio [5]: 0.8
- ECL signal/noise ratio [6]: 1.1
- ECL signal/noise ratio [7]: 0.5
- ECL signal/noise ratio [8]: 4.9
- ECL signal/noise ratio [9]: 1
B1: Fab VH1-46_IGHD6-6*01_IGHJ1*01 & L6_IGKJ1*01 (Fab, V domains shown)
VH: B2 VH with A102S, P103S, F104S, S111H
VL: not shown
notes: Tested as a Fab expressed in E. coli; The heavy chain variable region was cloned into Plasmid A (CH1, His6 and Flag tags) and the kappa light chain variable region into Plasmid C (kappa CL); also called Parent; parental

- Signal/Noise [11]: 4.3
B4: Fab VH1-46_IGHD6-6*01_IGHJ1*01 S102A/S103P/S104F A106E & L6_IGKJ1*01 (Fab, V domains shown)
VH: B2 VH with A106E, S111H
VL: not shown
notes: Tested as Fab; also called APF A106E

- ECL signal/blank ratio (read-out not given) [21]: 1.6
- ECL signal/blank ratio (read-out not given) [28]: 2.9
- ECL signal/blank ratio (read-out not given) [23]: 2
- ECL signal/blank ratio (read-out not given) [24]: 11.2
- ECL signal/blank ratio (read-out not given) [25]: 7.1
- ECL signal/blank ratio (read-out not given) [26]: 2.6
- ECL signal/blank ratio (read-out not given) [27]: 20.9
B8: Fab VH3-23_IGHD2-21*01>3_IGHJ6*01 H100E/S108P/Y113G A61T & V2-13_IGLJ2*01 (Fab, V domains shown)
VH: B7 VH with A58T, A61T
VL: B6 VL
notes: Tested as a Fab made in E. coli; also called EPG A61T

- ECL signal/blank ratio (read-out not given) [21]: 1.2
- ECL signal/blank ratio (read-out not given) [28]: 2.6
- ECL signal/blank ratio (read-out not given) [23]: 1.5
- ECL signal/blank ratio (read-out not given) [24]: 11.5
- ECL signal/blank ratio (read-out not given) [25]: 6.2
- ECL signal/blank ratio (read-out not given) [26]: 2.3
- ECL signal/blank ratio (read-out not given) [27]: 25.3
B9: Fab VH3-23_IGHD2-21*01>3_IGHJ6*01 H100E/S108P/Y113G Y60A & V2-13_IGLJ2*01 (Fab, V domains shown)
VH: B7 VH with A58T, Y60A
VL: B6 VL
notes: Tested as a Fab made in E. coli; also called EPG Y60A
